Experimental data reported in patent US6090388.
Like-named read-outs stand apart in the source and are kept apart here.

Assays:
[1] = target: gp120 of HIV-1 primary isolate UG029 (clade A) (HIV-1)
[2] = target: gp120 of HIV-1 primary isolate UG266 (clade D) (HIV-1)
[3] = target: gp120 of HIV-1 primary isolate VL 135 (clade B) (HIV-1)
[4] = target: gp120 of HIV-1 primary isolate ZIM 748 (clade C) (HIV-1)
[5] = target: gp120 of HIV-1 primary isolate TH036 (clade E) (HIV-1)
[6] = target: human CD4 on the surface of CD4-expressing T cells (human); assay: B4-biotin + FITC-avidin on MT2 T cells after medium alone
[7] = target: human CD4 on the surface of CD4-expressing T cells (human)
[8] = target: human CD4 on the surface of CD4-expressing T cells (human); remark: listed apart in the source
[9] = target: human CD4 on the surface of CD4-expressing T cells (human); assay: IFA on MT2 T cells

| Substance | 90% neutralization, MT-2 microplaque assay, HIV-1 UGO29 [1] | 90% neutralization, MT-2 microplaque assay, HIV-1 UG266 [2] | 90% neutralization, MT-2 microplaque assay, HIV-1 VL 135 [3] | 90% neutralization, MT-2 microplaque assay, HIV-1 ZIM 748 [4] | 90% neutralization, MT-2 microplaque assay, HIV-1 TH036 [5] | % Pos cells [6] | % Pos cells [7] | 90% neutralization, MT-2 microplaque assay, HIV-1 DH12 (clade B) [8] | 90% neutralization, MT-2 microplaque assay, HIV-1 TH036 (clade E) [8] | 90% neutralization, MT-2 microplaque assay, HIV-1 UG266 (clade D) [8] | 90% neutralization, MT-2 microplaque assay, HIV-1 UGO29 (clade A) [8] | 90% neutralization, MT-2 microplaque assay, HIV-1 VL 135 (clade B) [8] | 90% neutralization, MT-2 microplaque assay, HIV-1 ZIM 748 (clade C) [8] | % Pos cells [9] |
| --- | --- | --- | --- | --- | --- | --- | --- | --- | --- | --- | --- | --- | --- | --- |
| recombinant human monoclonal antibody IgG1 b12 | 38.5 µg/mL | > 50 µg/mL | 41.7 µg/mL | > 50 µg/mL | > 50 µg/mL |  |  |  |  |  |  |  |  |  |
| monoclonal antibody B4 |  |  |  |  |  | > 95% | 0% | 2.1 µg/mL | 3.32 µg/mL | 25.6 µg/mL | 6.76 µg/mL | 1.54 µg/mL | 2.82 µg/mL | > 95% |
